From patent publication KR20200090598A

B1: MS501 scFv 단백질 (scFv)
scFv: EVQLLESGGGLVQPGGSLRLSCAASGFTFSNYAMSWVRQAPGKGLEWVSGIYPDSGSTYYADSVKGRFTISRDNSKNTLYLQMNSLRAEDTAVYYCARNIYTFDYWGQGTLVTVSSGGGGSGGGGSGGGGSQSVLTQPPSASGTPGQRVTISCSGSSSNIGSNAVSWYQQLPGTAPKLLIYYNNQRPSGVPDRFSGSKSGTSASLAISGLRSEDEADYYCGSWDSSLSGYVFGGGTKLTVLG
B2: MS503 scFv 단백질 (scFv)
scFv: EVQLLESGGGLVQPGGSLRLSCAASGFTFSNYAMSWVRQAPGKGLEWVSSIYPGDGSTYYADSVKGRFTISRDNSKNTLYLQMNSLRAEDTAVYYCAKNAFTFDYWGQGTLVTVSSGGGGSGGGGSGGGGSQSVLTQPPSASGTPGQRVTISCSGSSSNIGSNAVSWYQQLPGTAPKLLIYYNSHRPSGVPDRFSGSKSGTSASLAISGLRSEDEADYYCGTWDSSLSGYVFGGGTKLTVLG
B3: C2G4 scFv 단백질 (scFv)
scFv: EVQLLESGGGLVQPGGSLRLSCAASGFTFSNYAMSWVRQAPGKGLEWVSGIPPDSGSKYYADSVRGRFTVSRDNSKNTLYLQMNSLRAEDTAVYYCAKNMLSFDYWGQGTLVTVSSGGGGSGGGGSGGGGSQSVLTQPPSASGTPGQRVTISCTGSSSNIGSNAVSWYQQLPGTAPKLLIYYNSKRPSGVPDRFSGSKSGTSASLAISGLRSEDEADYYCGSWDPSLNGYVFGGGTKVTVLG

Molecular target: 메소텔린 (MIA PaCa2-MSLN 세포에 과발현) (UniProt Q13421)
Experiment: flow cytometry on MIA PaCa2-MSLN cells; 1 μg scFv, anti-6xHis tag detection

Percent of cells bound, > 68%:
B1
B2
B3
